From the RNAGym collection of RNA variant scans (doi:10.1073/pnas.2313332121)

B1: TPR t1 (parent)
chain: GACCAAUCUGCCCUCAGAGCUCGAGAACAUCUUCGGAUGCAGAGGAGGCAGGCUUCGGUGGCGCGAUAGCGCCAACGUCCUCAACCUCCAAUGCAUCCCACCACAUGAUGAUGCCUGAAGAGCCUUGGUUUUUUG

Variants of: B1
Test: polymerase ribozyme fitness, log enrichment relative to wild type (log ratio); higher = more active; in vitro selection for triplet polymerase activity
In short: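 Libraries of mutants in each subunit of a heterodimeric triplet polymerase ribozyme were generated by PCR and transcribed. In triplicate, each went through one in vitro selection round: annealing with biotinylated primer, partner subunit and triplets; frozen incubation at −7 °C; gel excision of extended constructs; streptavidin-bead capture; RT-PCR. Fitness, taken from Illumina sequencing of input and output libraries, is the logarithm of a genotype's enrichment over wild-type enrichment, averaged across replicates with inverse-variance weights. The logarithm is base 2, and genotypes needed ≥10 input reads and ≥1 read per output to be kept.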

Variant	polymerase ribozyme fitness (log ratio)
GACCAAUCUGCCCUCAGAGCUCGAGAACAUCUUCGGAUGUAGAGGAGGCAGGCUUCGGUGGCGCGAUAGCGCCAAGGUCCUCAACCUCCAAUGCAUCCCACCACAUGAUGAUGCCUGAACAGCCUUGGUUUUUUG [C40U C76G G120C]	0.524
GACCAAUCUGCCCUCAGAGCUCGAGAACAUCUUCGGAUGCAGAGGAGGCAGGAUUCGGUGGCGCGAUAGCGCCAAUGUCCUCAACCCCCAAUGCAUCCCACCACAUGAUGAUGCCUGAAGAGCCUUGGUUUUUUG [C53A C76U U87C]	-0.534
GACCAAUCUGCCCUCAGAGCUCGAGAACAUCUUCGGAUGCAGAGGAGGUAGGCUUCGGUGGCGCGAUAGCGGCAACGUCCUCAACCUCCAAUGCAUUCCACCACAAGAUGAUGCCUGAAGAGCCUUGGUUUUUUG [C49U C72G C97U U106A]	-0.73
GACCAAUCUGCCCUCAGAGCUCGAGAACACCUUCGGAUGCAGAGGAGGCAGGCUUCGGUGGCGCGAUAGUGCCAACGUCCUGAACCUCCAAUGCAUCCCACCACAUGAUGAUGCCUGAAGAGCCUUGGUUUUUUG [U30C C70U C82G]	-6.42
GACCAAUCUGCCCUCAGAGCUCGAGAACAUCUUCGGAUGCAGAGGAGGCAGGAUUCGGUGGCGCGUUAGCGCCAACGUCCUCAACCUCCAAUGCAUCCCACCACAUGAUGAUGCCUGAAGAGCCUUGGUUUUUUG [C53A A66U]	-1.07
GACCAAUCAGCCCUCAGAGCUCGAGAACAUGUUCGGAUGCAGAGGAGGCAGGCUUCGGUGGCGCGAUAGCGCCAACGUCCUCAACCUCCAAUGCAUCCCACCACAUGAUGAUGCCUGAAGAGCCUUGGUUUUUUG [U9A C31G]	-4.11
GACCAAUCUGCCCUCAGAGCUCGACAACAUCUUCGUAUGCAGAGGAGGCAGGCUUCGGUGGCGCGAUAGCGCCAACGUCCUCAACCACCAAUGCAUCCCACCACAUGGUGAUGCCUGAAAAGCCUUGGUUUUUUC [G25C G36U U87A A108G G120A G135C]	-5.8
GACCAAUCUGCCCUCAGAGCUCGAGAACAUCUUCGGAUGCAGAGGAGGCAGGCUUCGGUGGCGCGAUAGGGCCAACGUCCUCAAACUCCAAUACAUCCGACCACAUGAUUAUGCCUGAAGAGCCUUGGUUUUUUG [C70G C85A G93A C99G G110U]	-6.29
GACCAAUCUGCCCUCAGAGGUCGAGAACAUCUUCGGAUGCAGAGGAGGCAGGCUUCGGUGGCGCGAUAGCGCCAACGUCCUCAACCUCCAAUGCAUCCCACCACAUGAUGAUGCCUGGAGAGCCUUGGUUUUUUG [C20G A118G]	-5.96
GACCAAUCUGCCCUCAGAGCUCGAGAACAUCUUCGGAUGCAGAGGAGGCAGGCUUCGGUGGCGCGAUAGCGCCAACGUGCUCAACCUCCCAUGCAUCCCACCACAUGAUGAAGCCUGAAGAGCCUUGGUUUUUUG [C79G A90C U112A]	-3.88
GACCAAUCUGCCCUCAGAGCGCGAGAACAUCUUCGGAUGCAGAGGAGUCAGGCUUCGGCGGCGCGAUAGCGCCUACGUCCUCAACCUCCAAUGCAUCCCACCACAUGAUGAUGACUGAAGAGCCUUGGUUUUUUG [U21G G48U U59C A74U C114A]	-2.3
GACUAAUCUGCCCUCAGAGCUCGAGAACAUCUUCGGAGGCAGAGGAGGAAGGUUUCGGUGGCGCGAUAGCGCUAACGUCCUCAACCUCCAAUGCAUCCCACCACAUGAUGAUGCCUGAAGAGCCUUGGUUUUUUG [C4U U38G C49A C53U C73U]	-2.53
GACCAAUCUGCGCUCAGAGCUCGAGAACAUCUUCGGAUGCAGAGGAGGCAGGCUUCGGUGGCGCGAUAGCGCCAACGUCCUCAACCUCCAAUGCAUCCCACCACAUGAUGAUGCCUGAAGAGACUCGGUUUUUUG [C12G C123A U126C]	0.201
GACCAAUGUGCCGUCAGAGCUCGAGAACAUCUUCGGCUGCAGAGGAGGCAGCCUUCGGUGGGGCGAUAGCGCCAACGUCCUCAACUUCCAAUGCAUCCCACCACAUGAUGAUGCCUGAAGAGCCUUGGUUUUUUG [C8G C13G A37C G52C C62G C86U]	-4.08
GACCAAUCUGCUCUUAAAGCUCGAGAACAUCUUCGGAUGCAGAGGAGGCAGGCUUCGGUGGCGCGAUAGCGCCAACGUCCUCCAACUCCAAUGCAUCCCACCACAUGAUGAUGCCUUAAGAGCCUUGGUUUUUUG [C12U C15U G17A A83C C85A G117U]	-2.34
GACCAAUCUGCCCUCAGAGCUCGAGAACAUCUUCGGAUGCAGAGGAGGCAGGCUUCGGUGGCGCGAUAGCGCCAACGUCCUCAAGCUCCAAUGCAUCCCACUACAUGAUGAUUCCUAAACAGCCUUGGUUUUUUG [C85G C102U G113U G117A G120C]	-5.52
GACCUAUCUGCACUCAGAGCUGGAGACCAUCUUCGGAGGCAGAGGAGGCAGGCUUCGGUGGCGCGAUAGCGCCAACGUCCUCAACCUCCAAUGCAUCCCACCACAUGAUGUUGCCUGAAGAGCCUUGGUUUUUUG [A5U C12A C22G A27C U38G A111U]	-2.81
GAACAAUCGGCCCUCAGAGCUCGAGAACAUCUUCGGAUGCAGAGGAGGCAGGCUUCGGUGGCGCGAUAGCGCCAACGUCCUCAACCUCCAAUGCAUCUCACCACAUGAUGAUGCCUGAAGAGCCUUGGUUUUUUG [C3A U9G C98U]	-1.51
GAACAAUCGGCCCUCAGAGCUCGAGAACAUCUUCGGAUGUAGAGGAGGCAGGCUUCUGUGGCGCGAUAGCGCCAACGUCCUCAACCUCCAAUGCAUCCCACCACGUGAUGAUGCCUGAAGAGCCUUGGUUUUUUG [C3A U9G C40U G57U A105G]	-4.58
GACCAAUCUGCCCUCAGAGCUCGAGAACAUCUUCGGAUGCAGAGGAGGCAGGCUUCGGUGGCGCGAUAGCGCCAACGUCCUCAACCUCCAAUGCAUGCCACCACAUGAUGAUGCCUGAACAGCCUUGGUUUUUUG [C97G G120C]	-4.64
GACUAAUCUGCCCUCAGAGCUCGAGAACAUCUUCGGAUGUAGAGGAGGCAGGCUUCGGUGGAGCGAUAGCGCCAACGUCCUCAACCUCCAAUGCAUCCCACCACAUGAUGAUGCCUGAAGAGCCUUGGUUUUUUG [C4U C40U C62A]	-2.28
